Data taken from the supplement of paper PMC10724198.

Assays:
Saccharomyces cerevisiae [1] = assay: protein stability index of tFT-peptide fusion in wild type (PSI (0-1 scale)); higher = more stable (slower turnover); settings: genetic background: wild type
Protocol: (§1)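 MPS profiling in S. cerevisiae of two library types built from selected 12-aa C-degron peptides (IN1, IN2, LN1, LN3, VN2, R1-R5, W1-W3, Atg1 and Rpa12 C-termini): saturation mutagenesis libraries and C-terminal +1 capping libraries (13 aa). Each peptide is fused to the C-terminus of a sfGFP-mCherry timer, after a GGGS linker. Cells are FACS-sorted into 8 mCherry/sfGFP bins and sequenced. PSI runs from 0 (unstable) to 1 (stable), measured once in wild type and in the das1Δ or doa10Δ background.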

Saccharomyces cerevisiae [2] = assay: protein stability index of tFT-peptide fusion in deletion strain of DAS1 (PSI (0-1 scale)); higher = more stable (slower turnover)
Protocol: as §1
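For protein stability index of tFT-peptide fusion in deletion strain of DAS1 in this document: PSI is a weighted mean of each variant's read distribution over the sorted stability bins, computed only for variants having over 10 reads in total.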
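For protein stability index of tFT-peptide fusion in wild type in this document: PSI derived as read-weighted mean over the 8 sorting bins, only variants exceeding 10 total reads kept, mCherry placed adjacent to the peptide and sfGFP distal.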

| Sequence | protein stability index (Saccharomyces cerevisiae [1]) | protein stability index (Saccharomyces cerevisiae [2]) |
| --- | --- | --- |
| PDKRNHLIKLVN | 0.158 | 0.645 |
| PDKRNHLIKPLN | 0.607 | 0.586 |
| PDKRNHLIKRLN | 0.104 | 0.602 |
| PDKRNHLIMLLN | 0.193 | 0.624 |
| PDKRNHLIPLLN | 0.405 | 0.585 |
| PDKRNHLIQLLN | 0.102 | 0.616 |
| PDKRNHLITLLN | 0.315 | 0.622 |
| PDKRNHLQKLLN | 0.168 | 0.582 |
| PDKRNHVIKLLN | 0.0941 | 0.605 |
| PDKRNHWIKLLN | 0.196 | 0.567 |
| PDKRNVLIKLLN | 0.125 | 0.589 |
| PDKRNWLIKLLN | 0.0714 | 0.675 |
| PDKRSHLIKLLN | 0.0872 | 0.631 |
| PDKWNHLIKLLN | 0.0782 | 0.576 |
| PDLRNHLIKLLN | 0.13 | 0.614 |
| PSGAASFWRVVG | 0.16 | 0.668 |
| PSLAASFERVVG | 0.655 | 0.675 |
| PSLAASFHRVVG | 0.687 | 0.649 |
| PSLAASFIRVVG | 0.46 | 0.435 |
| PSLAASFVRVVG | 0.528 | 0.514 |
| PSLAASFWGVVG | 0.697 | 0.715 |
| PSLAASFWLVVG | 0.38 | 0.611 |
| PSLAASFWRAVG | 0.158 | 0.699 |

| Sequence | protein stability index (Saccharomyces cerevisiae [1]) | protein stability index (Saccharomyces cerevisiae [2]) |
| --- | --- | --- |
| PSLAASFWREVG | 0.258 | 0.705 |
| PSLAASFWRVCG | 0.163 | 0.659 |
| PSLAASFWRVLG | 0.164 | 0.68 |
| PSLAASFWRVPG | 0.677 | 0.689 |
| PSLAASFWRVVGK | 0.666 | 0.689 |
| PSLAASFWRVVGT | 0.674 | 0.698 |
| PSLAASFWRVVP | 0.539 | 0.688 |
| PSLAATFWRVVG | 0.135 | 0.674 |
| PSLACSFWRVVG | 0.139 | 0.675 |
| PSLAYSFWRVVG | 0.134 | 0.693 |
| PSLDASFWRVVG | 0.128 | 0.677 |
| PSLFASFWRVVG | 0.109 | 0.694 |
| PSLPASFWRVVG | 0.197 | 0.685 |
| PSLRASFWRVVG | 0.141 | 0.688 |
| PSRAASFWRVVG | 0.149 | 0.691 |
| PSWAASFWRVVG | 0.154 | 0.714 |
| PTLAASFWRVVG | 0.162 | 0.703 |
| PVLAASFWRVVG | 0.161 | 0.68 |
| PYLAASFWRVVG | 0.151 | 0.699 |
| QVVYLSCVACIN | 0.0122 | 0.0307 |
| RCIQPLPVQFLN | 0.0766 | 0.572 |
| RLICPLPVQFLN | 0.0408 | 0.562 |
| RLIQNLPVQFLN | 0.029 | 0.57 |

| Sequence | protein stability index (Saccharomyces cerevisiae [1]) | protein stability index (Saccharomyces cerevisiae [2]) |
| --- | --- | --- |
| RLIQPFPVQFLN | 0.09 | 0.778 |
| RLIQPLCVQFLN | 0.0777 | 0.605 |
| RLIQPLGVQFLN | 0.0859 | 0.66 |
| RLIQPLPCQFLN | 0.0496 | 0.587 |
| RLIQPLPVEFLN | 0.0996 | 0.586 |
| RLIQPLPVQALN | 0.36 | 0.569 |
| RLIQPLPVQDLN | 0.6 | 0.576 |
| RLIQPLPVQFCN | 0.195 | 0.681 |
| RLIQPLPVQFFN | 0.0467 | 0.563 |
| RLIQPLPVQFLD | 0.633 | 0.573 |
| RLIQPLPVQFLNR | 0.659 | 0.669 |
| RLIQPLPVQFLQ | 0.447 | 0.647 |
| RLIQPLPVQFNN | 0.554 | 0.6 |
| RLIQPLPVQVLN | 0.204 | 0.46 |
| RLIQPLPVQYLN | 0.0462 | 0.661 |
| RLIQPLPVSFLN | 0.262 | 0.593 |
| RLIQPSPVQFLN | 0.0855 | 0.683 |
| RLIQQLPVQFLN | 0.0315 | 0.602 |
| RLIRPLPVQFLN | 0.0343 | 0.593 |
| RLQQPLPVQFLN | 0.0653 | 0.574 |
| RLYQPLPVQFLN | 0.068 | 0.586 |
| VRGACGGWRLVG | 0.143 | 0.677 |
| VRGAGGGWRLVG | 0.209 | 0.663 |

| Sequence | protein stability index (Saccharomyces cerevisiae [1]) | protein stability index (Saccharomyces cerevisiae [2]) |
| --- | --- | --- |
| VRGARGGWRLVG | 0.273 | 0.686 |
| VRGAVEGWRLVG | 0.19 | 0.692 |
| VRGAVFGWRLVG | 0.149 | 0.678 |
| VRGAVGFWRLVG | 0.16 | 0.687 |
| VRGAVGGHRLVG | 0.675 | 0.703 |
| VRGAVGGWLLVG | 0.156 | 0.668 |
| VRGAVGGWRAVG | 0.365 | 0.67 |
| VRGAVGGWRLAG | 0.233 | 0.695 |
| VRGAVGGWRLHG | 0.226 | 0.662 |
| VRGAVGGWRLPG | 0.683 | 0.681 |
| VRGAVGGWRLVGT | 0.678 | 0.689 |
| VRGAVGGWRLVR | 0.651 | 0.682 |
| VRGAVGGWRLYG | 0.239 | 0.686 |
| VRGAVGWWRLVG | 0.163 | 0.665 |
| VRGAVGYWRLVG | 0.152 | 0.668 |
| VRGAVNGWRLVG | 0.157 | 0.694 |
| VRGAVRGWRLVG | 0.146 | 0.7 |
| VRGAVYGWRLVG | 0.141 | 0.666 |
| VRGRVGGWRLVG | 0.121 | 0.675 |
| VRIAVGGWRLVG | 0.11 | 0.68 |
